Where two headings read alike, the source gives them in different places. No end group written: not given here.
Columns and labels:
poly(dG)-poly(dC) 20-mer = assay: Thiazole orange total fluorescence titration with non-target DNA; conditions: 50 nM TO-ZF or TO; fit to equation 2; read-out: dissociation constant, non-specific binding
[1] = target: fluorescein labeled GRE2 sequence dsDNA (F-GRE2); assay: Total fluorescence quenching (energy transfer) of fluorescein labeled DNA; assay type: binding
Description: Fluorescence Measurements. Steady state fluorescence anisotropy measurements were carried out in 20 mM Tris (pH 7.9), 30 mM NaCl, 20 mM KCl, 1 mM MgCl2, and 5% glycerol. […] DNA samples used were either the non-labeled sequences shown in FIG. 2 or a fluorescein labeled duplex with a sequence matching GRE2 (FIG. 2).
For fluorescein labeled DNA measurements, the excitation wavelength was 491 nm and the emission was recorded at 521 nm with a 1.0 nm slit width. Titrations were performed holding the concentration of fluorescein-labeled DNA constant and increasing the concentration of TO, ZF or TO-ZF as indicated. To correct for the small amount of background fluorescence from TO in these measurements, control experiments were performed in parallel using DNA that was not fluorescein labeled, but was otherwise identical to the labeled DNA fragments. The thiazole orange fluorescence intensity measured in the control experiments was subtracted from the total fluorescence intensity for each data point. Under the excitation conditions of these measurements, the contribution to fluorescence by TO at 521 nm was less than 5% of the maximum fluorescence signal observed in the experiment. Even at the point in the titration where the maximum quenching of fluorescein fluorescence was observed (the point of lowest total fluorescence in the measurement), less than half of the fluorescence was due to TO, and this could accurately be removed by subtraction of the control value. Each point is an average of 60 measurements, and each titration was performed independently three times.
Total fluorescence data were collected in parallel to the anisotropy measurements and were calculated from raw data as the fluorescence intensity in the vertical plane plus two times the fluorescence intensity of the horizontal plane, (TF=Ivv+2Ivh). These values were used to determine the percent of the maximum fluorescence for each point along the titration and fit to equation 2. [formula] […]
Fluorescence changes upon binding of TO, ZF and TO-ZF to GRE containing duplex DNA. Equilibrium binding of the non-labeled zinc finger (ZF), unconjugated thiazole orange (TO) and thiazole orange-zinc finger conjugate (TO-ZF) to fluorescein labeled GRE2 sequence dsDNA was measured by both fluorescence anisotropy and total fluorescence. […] For fluorescein fluorescence, excitation was at 491 nm and emission was detected at 521 nm. […] Changes in the steady-state anisotropy of the fluorescein fluorescence from the labeled GRE sequence containing DNA (F-GRE2) can arise from two sources. […] By comparison, the amino acid zinc finger Xfin-31 was determined to have a dissociation constant of approximately 1 μM, M. S. Lee, et al., FEBS 279:289-294 (1991), whereas, the 66 amino acid zinc finger from GATA-1 has a dissociation constant of 10 nM. […]

dsDNA = conditions: cited from earlier work
[2] = tested on: Hin recombinase consensus sequence (hixL) dsDNA; assay: Total fluorescence reverse titration of conjugate with nonlabeled consensus DNA; assay type: binding, S. typhimurium
Description: Fluorescence Measurements. Steady state fluorescence anisotropy and total fluorescence measurements were performed as forward and reverse titrations, respectively, as described previously, M. Thompson, et al., supra, 2000. Forward titrations of the tetramethylrhodamine labeled DNA (TMR-DNA) with nonlabeled DNA-binding domains were performed at 10 nM TMR-DNA. Vertical excitation was at 542 nm with detection in the verticle and horizontal planes at 582 nm. Reverse titrations of 1 nM of the appropriate conjugate were titrated with nonlabeled DNA. Excitation and emission detection was at 480 nm and 510 nm for oxazole yellow and 510 nm and 535 nm for thiazole orange samples. Salt dependence studies were performed by titrating an appropriate amount of 1 M NaCl in the same Tris buffer to yield the indicated final salt concentration. Temperature dependence studies were performed by incubating each sample for 30 minutes at the given temperature. The temperature of the sample was held constant by pumping water through the cuvette holder from a temperature equilibrated water bath. Each titration was performed at least 3 times.
Determination of thermodynamic functions. The contribution of the hydrophobic effect and the polyelectrolyte effect to the stability of the conjugate or DNA-binding domain—DNA complex is assessed by analysis of the dependence of the observed association equilibrium constant Kobs for a range of temperatures and salt concentrations as in the following: [formula]
where, [P] eq is the concentration of the conjugate or DNA-binding domain, [D] eq is the concentration of DNA, and [PD] eq is the concentration of bound complex at equilibrium. The analysis is based on the assumption that this is a single-step bimolecular reaction.
Specific binding by the dye labeled peptides (conjugates). The binding affinity of the two dye labeled peptides comprising the Hin recombinase and Tc3 transposase DNA-binding domains conjugated to oxazole yellow and thiazole orange, respectively, were determined. In this case, the total fluorescence intensity can be used to determine the binding affinity by these systems. […] In addition, the bound and free populations of the conjugate, and therefore the dye, present at equilibrium have such an extreme increase in quantum yield (˜1000-5000-fold) that the total fluorescence from the system is a very sensitive and accurate way to monitor binding. Note that each oligonucleotide shown was hybridized to […] forming a dsDNA segment.
In FIG. 9, semi-log plot of the total fluorescence of I nM conjugate is plotted as the log of the concentration of nonlabeled DNA containing each respective consensus sequence. The solid lines represent a fit for the percent of the maximal fluorescence values at 298 K, 0.150 M Na+, (●),313 K, 0.150 M Na+ (t) and 298 K, 0.250 M Na+(▪). The binding constants (Kobs) determined from these curves and the corresponding binding free energies (DG°) are given in Table 1 for the range of salt concentrations (0.15 to 0.25 M Na+) and temperatures (275 to 313 K) investigated. The equilibrium constant decreases 7- and 10-fold for the TOTc3 and YOHin, respectively, when the salt concentration is increased from 0.15 to 0.25 M salt.

[3] = target: T1, TO-ZF (thiazole orange-GR zinc finger conjugate) (UniProt P06536 SEQ:1-28); assay: TO fluorescence titration; 20 mM Tris pH 7.9, 30 mM NaCl, 20 mM KCl, 1 mM MgCl2, 5% glycerol, ZnCl2; conditions: protein: synthetic; tags: thiazole orange on Lys epsilon-amine (first residue coupled to resin); synthetic solid-phase peptide (text states 29 aa, listing 28 aa), Zn-loaded
T1 chain: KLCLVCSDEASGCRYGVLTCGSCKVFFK

[4] = target: T2, TOTc3 (thiazole orange-Tc3 transposase DNA-binding domain, residues 202-253) (UniProt P34257 SEQ:1-51); assay: 298 K, 0.150 M Na+; 275 K 22e6, 293 K 66e6, 313 K 22e6; 298 K 0.250 M Na+ 17e6; conditions: protein: synthetic; tags: thiazole orange covalently attached; synthetic solid-phase peptide (text states 52 aa, listing 51 aa)
T2 chain: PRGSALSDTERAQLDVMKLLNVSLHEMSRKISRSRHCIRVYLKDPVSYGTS

[5] = target: T1, TO-ZF (thiazole orange-GR zinc finger …); assay: TO fluorescence titration; same buffer; conditions: protein: synthetic; tags: thiazole orange on Lys epsilon-amine (first residue coupled to resin); synthetic solid-phase peptide (text states 29 aa, listing 28 aa), Zn-loaded
[6] = target: T1, TO-ZF (thiazole orange-GR zinc finger …); assay: TO fluorescence titration; single G to A change in half-site; conditions: protein: synthetic; tags: thiazole orange on Lys epsilon-amine (first residue coupled to resin); synthetic solid-phase peptide (text states 29 aa, listing 28 aa), Zn-loaded
[7] = target: T1, TO-ZF (thiazole orange-GR zinc finger …); assay: TO fluorescence titration; single base change in half-site; conditions: protein: synthetic; tags: thiazole orange on Lys epsilon-amine (first residue coupled to resin); synthetic solid-phase peptide (text states 29 aa, listing 28 aa), Zn-loaded
[8] = target: T1, TO-ZF (thiazole orange-GR zinc finger …); assay: TO fluorescence titration; two base changes vs GRE; conditions: protein: synthetic; tags: thiazole orange on Lys epsilon-amine (first residue coupled to resin); synthetic solid-phase peptide (text states 29 aa, listing 28 aa), Zn-loaded
[9] = target: T1, TO-ZF (thiazole orange-GR zinc finger …); assay: same as poly(dG)-poly(dC) within experimental error; conditions: protein: synthetic; tags: thiazole orange on Lys epsilon-amine (first residue coupled to resin); synthetic solid-phase peptide (text states 29 aa, listing 28 aa), Zn-loaded
[10] = target: T3, YOHin (oxazole yellow-Hin recombinase DNA-binding domain, residues 139-190) (UniProt P03013 SEQ:1-52); assay: 298 K, 0.150 M Na+; 275 K 22e6, 293 K 143e6, 313 K 29e6; 298 K 0.250 M Na+ 14e6; conditions: protein: synthetic; tags: oxazole yellow covalently attached; synthetic solid-phase peptide
T3 chain: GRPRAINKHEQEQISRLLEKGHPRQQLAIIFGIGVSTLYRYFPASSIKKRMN

CN1C(=Cc2cc[n+](C)c3ccccc23)Sc2ccccc21 [TO, thiazole orange]
Kd (poly(dG)-poly(dC) 20-mer): 2400 nM | Kd ([1]; 50 nM F-GRE2, interpretation cautioned (many binding sites), read-out: dissociation constant from quenching curve): 2400 nM | change in total fluorescein fluorescence over the titration ([1]; excitation 491 nm, emission 521 nm): large decreases in steady state fluorescence | Kd (dsDNA; 5-fold higher salt concentration, Nygren et al., Biopolymers 1998, read-out: dissociation constant for binding to dsDNA): ~3000 nM | Kd (dsDNA; Haugland 1996, Netzel et al. 1995, read-out: Kd (moderate affinity DNA binding)): ~10000 nM

YOHin: oxazole yellow conjugated to the 52 amino acid Hin DNA binding domain, residues 139-190 of Hin recombinase (GRPRAINKHEQEQISRLLEKGHPRQQLAIIFGIGVSTLYRYFPASRIKKRMN; also: oxazole yellow conjugated, site not given here; UniProt P03013 139-190, looked up, fragment)
decrease of equilibrium constant when salt is increased from 0.15 to 0.25 M ([2]; 0.15 to 0.25 M salt): 10 fold | Kobs ([2]; 275 K, 0.150 M Na+): 22 (M^−1) × 10^−6 | ΔG° ([2]; 275 K, 0.150 M Na+): -9.2 kcal/mol | Kobs ([2]; 278 K, 0.150 M Na+): 21 (M^−1) × 10^−6 | ΔG° ([2]; 278 K, 0.150 M Na+): -9.3 kcal/mol | Kobs ([2]; 283 K, 0.150 M Na+): 40 (M^−1) × 10^−6 | ΔG° ([2]; 283 K, 0.150 M Na+): -9.8 kcal/mol | Kobs ([2]; 288 K, 0.150 M Na+): 61 (M^−1) × 10^−6 | ΔG° ([2]; 288 K, 0.150 M Na+): -10.3 kcal/mol | Kobs ([2]; 293 K, 0.150 M Na+): 143 (M^−1) × 10^−6 | ΔG° ([2]; 293 K, 0.150 M Na+): -10.9 kcal/mol | Kobs ([2]; 298 K, 0.150 M Na+): 83 (M^−1) × 10^−6 | ΔG° ([2]; 298 K, 0.150 M Na+): -10.8 kcal/mol | Kobs ([2]; 298 K, 0.175 M Na+): 67 (M^−1) × 10^−6 | ΔG° ([2]; 298 K, 0.175 M Na+): -10.7 kcal/mol | Kobs ([2]; 298 K, 0.200 M Na+): 37 (M^−1) × 10^−6 | ΔG° ([2]; 298 K, 0.200 M Na+): -10.3 kcal/mol | Kobs ([2]; 298 K, 0.225 M Na+): 29 (M^−1) × 10^−6 | ΔG° ([2]; 298 K, 0.225 M Na+): -10.2 kcal/mol | Kobs ([2]; 298 K, 0.250 M Na+): 14 (M^−1) × 10^−6 | ΔG° ([2]; 298 K, 0.250 M Na+): -9.8 kcal/mol | Kobs ([2]; 303 K, 0.150 M Na+): 60 (M^−1) × 10^−6 | ΔG° ([2]; 303 K, 0.150 M Na+): -10.8 kcal/mol | Kobs ([2]; 308 K, 0.150 M Na+): 41 (M^−1) × 10^−6 | ΔG° ([2]; 308 K, 0.150 M Na+): -10.7 kcal/mol | Kobs ([2]; 313 K, 0.150 M Na+): 29 (M^−1) × 10^−6 | ΔG° ([2]; 313 K, 0.150 M Na+): -10.7 kcal/mol

B1: GRE1 (dsDNA)
DNA 1: TCATACCACTAACTGTTCTATCA
DNA 2: TGATAGAACAGTTAGTGGTATGA
Kd [3]: 25 nM

B2: Tc3 consensus oligonucleotide (dsDNA)
DNA 1: ATCGGCACGATGCTAGTTCTATAGGACCCCCC
DNA 2: GGGGGGTCCTATAGAACTAGCATCGTGCCGAT
Ka [4]: 2.45e+08 M⁻¹

B3: GRE2 (dsDNA)
DNA 1: TGATACGGCTGACTGTTCTATGA
DNA 2: TCATAGAACAGTCAGCCGTATCA
Kd [5]: 25 nM

B4: GRE3 (dsDNA)
DNA 1: TCATACATCTAACTATTCTATCA
DNA 2: TGATAGAATAGTTAGATGTATGA
Kd [6]: 57 nM

B5: GRE4 (dsDNA)
DNA 1: TCATACATCTAACTGTCCTATCA
DNA 2: TGATAGGACAGTTAGATGTATGA
Kd [7]: 220 nM

B6: ERE (dsDNA)
DNA 1: TCATACATCTAACTGACCTATCA
DNA 2: TGATAGGTCAGTTAGATGTATGA
Kd [8]: 810 nM

B7: (dGdC)20 (dsDNA)
DNA 1: GCGCGCGCGCGCGCGCGCGCGCGCGCGCGCGCGCGCGCGC
DNA 2: B7 DNA 1
modifications: [none]
Kd [9]: ~1100 nM

B8: hixL (Hin consensus) oligonucleotide (dsDNA)
DNA 1: TCTTATCAAAAACACTATCGTCGCACGGCTAC
DNA 2: GTAGCCGTGCGACGATAGTGTTTTTGATAAGA
Ka [10]: 8.3e+07 M⁻¹

— patent US6348317B1, “Fluorescent and DNA cleavage properties of peptide/dye conjugates” (The Arizona Board of Regents, priority 1999, dated 2002)
